Test results reported in paper PMC10397247.

Experiments:
Assay in all cases: two-hybrid library CCmax;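 further: natural log of median RNA to DNA barcode read ratio; higher means stronger binding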
4H324-AA = biological target: T1, 4H324-AA; settings: mean of both orientations
T1 chain: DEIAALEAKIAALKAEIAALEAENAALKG

4H1636-AA = biological target: T2, 4H1636-AA; settings: mean of both orientations
T2 chain: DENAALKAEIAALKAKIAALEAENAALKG

zCON9_B = biological target: T3, zCON9_B; settings: mean of both orientations
T3 chain: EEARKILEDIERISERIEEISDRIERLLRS

zCON9_D = biological target: T4, zCON9_D; settings: mean of both orientations
T4 chain: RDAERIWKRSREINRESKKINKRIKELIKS

P6-AA-1HAA-E = biological target: T5, P6-AA-1HAA-E; settings: mean of both orientations
T5 chain: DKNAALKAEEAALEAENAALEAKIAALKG

P6-AA-12HGe-W = biological target: T6, P6-AA-12HGe-W; settings: mean of both orientations
T6 chain: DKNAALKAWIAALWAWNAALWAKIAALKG

P6-AA-1HAA-T = biological target: T7, P6-AA-1HAA-T; settings: mean of both orientations
T7 chain: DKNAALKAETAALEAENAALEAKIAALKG

P12-AA = biological target: T8, P12-AA; settings: mean of both orientations
T8 chain: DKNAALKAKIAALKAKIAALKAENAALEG

P6-AA-1HAA-S = biological target: T9, P6-AA-1HAA-S; settings: mean of both orientations
T9 chain: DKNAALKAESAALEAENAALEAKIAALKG

AP4-AA = biological target: T10, AP4-AA; settings: mean of both orientations
T10 chain: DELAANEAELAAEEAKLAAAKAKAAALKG

P6-AA-1HGe-Q = biological target: T11, P6-AA-1HGe-Q; settings: mean of both orientations
T11 chain: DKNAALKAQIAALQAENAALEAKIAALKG

AP7-AA = biological target: T12, AP7-AA; settings: mean of both orientations
T12 chain: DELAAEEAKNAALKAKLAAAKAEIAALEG

P5-AA-1HAA-L = biological target: T13, P5-AA-1HAA-L; settings: mean of both orientations
T13 chain: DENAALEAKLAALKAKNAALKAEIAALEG

P5-AA-1HGe-S = biological target: T14, P5-AA-1HGe-S; settings: mean of both orientations
T14 chain: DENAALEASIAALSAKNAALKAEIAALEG

P5-AA-12HGe-H = biological target: T15, P5-AA-12HGe-H; settings: mean of both orientations
T15 chain: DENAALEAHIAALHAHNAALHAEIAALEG

P5-AA-1HGe-M = biological target: T16, P5-AA-1HGe-M; settings: mean of both orientations
T16 chain: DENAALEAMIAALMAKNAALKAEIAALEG

P5-AA-1HAA-K = biological target: T17, P5-AA-1HAA-K; settings: mean of both orientations
T17 chain: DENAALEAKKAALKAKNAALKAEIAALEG

APC6108-AA = biological target: T18, APC6108-AA; settings: mean of both orientations
T18 chain: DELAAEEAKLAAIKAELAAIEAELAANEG

APC3645-AA = biological target: T19, APC3645-AA
T19 chain: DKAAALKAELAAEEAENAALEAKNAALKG

4H2447-AA = biological target: T20, 4H2447-AA; settings: mean of both orientations
T20 chain: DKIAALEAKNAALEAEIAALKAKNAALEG

4H953-AA = biological target: T21, 4H953-AA; settings: mean of both orientations
T21 chain: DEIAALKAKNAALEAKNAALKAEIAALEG

APC4264-AA = biological target: T22, APC4264-AA; settings: mean of both orientations
T22 chain: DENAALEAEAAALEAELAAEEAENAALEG

4H3354-AA = biological target: T23, 4H3354-AA; settings: mean of both orientations
T23 chain: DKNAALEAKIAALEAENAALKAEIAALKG

APC2405-AA = biological target: T24, APC2405-AA; settings: mean of both orientations
T24 chain: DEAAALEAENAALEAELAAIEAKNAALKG

4H2888-AA = biological target: T25, 4H2888-AA; settings: mean of both orientations
T25 chain: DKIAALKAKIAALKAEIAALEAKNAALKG

4H337-AA = biological target: T26, 4H337-AA; settings: mean of both orientations
T26 chain: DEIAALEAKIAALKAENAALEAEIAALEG

4H3409-AA = biological target: T27, 4H3409-AA; settings: mean of both orientations
T27 chain: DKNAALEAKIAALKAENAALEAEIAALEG

4H2513-AA = biological target: T28, 4H2513-AA; settings: mean of both orientations
T28 chain: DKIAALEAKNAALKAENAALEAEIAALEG

4H327-AA = biological target: T29, 4H327-AA; settings: mean of both orientations
T29 chain: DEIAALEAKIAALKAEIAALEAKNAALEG

4H3664-AA = biological target: T30, 4H3664-AA; settings: mean of both orientations
T30 chain: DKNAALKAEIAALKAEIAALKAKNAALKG

4H55-AA = biological target: T31, 4H55-AA; settings: mean of both orientations
T31 chain: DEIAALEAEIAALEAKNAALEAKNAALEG

4H1350-AA = biological target: T32, 4H1350-AA
T32 chain: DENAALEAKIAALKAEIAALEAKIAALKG

4H1710-AA = biological target: T33, 4H1710-AA; settings: mean of both orientations
T33 chain: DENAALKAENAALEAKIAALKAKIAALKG

O7-AA = biological target: T34, O7-AA; settings: mean of both orientations
T34 chain: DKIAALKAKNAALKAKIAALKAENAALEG

4H1809-AA = biological target: T35, 4H1809-AA; settings: mean of both orientations
T35 chain: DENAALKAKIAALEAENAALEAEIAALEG

4H1349-AA = biological target: T36, 4H1349-AA; settings: mean of both orientations
T36 chain: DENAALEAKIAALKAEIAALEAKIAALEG

4H1854-AA = biological target: T37, 4H1854-AA; settings: mean of both orientations
T37 chain: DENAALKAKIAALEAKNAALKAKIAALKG

4H1454-AA = biological target: T38, 4H1454-AA; settings: mean of both orientations
T38 chain: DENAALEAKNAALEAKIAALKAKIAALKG

4H3628-AA = biological target: T39, 4H3628-AA; settings: mean of both orientations
T39 chain: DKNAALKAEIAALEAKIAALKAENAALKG

4H675-AA = biological target: T40, 4H675-AA; settings: mean of both orientations
T40 chain: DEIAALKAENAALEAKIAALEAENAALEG

4H1446-AA = biological target: T41, 4H1446-AA; settings: mean of both orientations
T41 chain: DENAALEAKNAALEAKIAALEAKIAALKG

4H895-AA = biological target: T42, 4H895-AA; settings: mean of both orientations
T42 chain: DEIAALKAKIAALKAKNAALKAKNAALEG

## DEIAALEAENAALKAKNAALKAEIAALEG [4H249-AA]
4H324-AA
  interaction score: -1.59

## DENAALEAKIAALKAKNAALKAEIAALEG [4H1401-AA]
4H1636-AA
  interaction score: -1.81
zCON9_B
  interaction score: -0.316
zCON9_D
  interaction score: -1.37
P6-AA-1HAA-E
  interaction score: 2.01
P6-AA-12HGe-W
  interaction score: -1.79
P6-AA-1HAA-T
  interaction score: 1.96
P12-AA
  interaction score: -1.92
P6-AA-1HAA-S
  interaction score: 1.9
AP4-AA
  interaction score: -1.22
P6-AA-1HGe-Q
  interaction score: 2.02
AP7-AA
  interaction score: -1.37

## DKNAALKAEIAALEAENAALEAKIAALKG [4H3606-AA]
P5-AA-1HAA-L
  interaction score: 2.39
zCON9_B
  interaction score: -0.854
zCON9_D
  interaction score: -1.76
P5-AA-1HGe-S
  interaction score: 2.03
P12-AA
  interaction score: -0.654
AP4-AA
  interaction score: -1.63
P5-AA-12HGe-H
  interaction score: 1.86
P5-AA-1HGe-M
  interaction score: 2.26
P5-AA-1HAA-K
  interaction score: 2.15
AP7-AA
  interaction score: -1.35

## DENAALKAKIAALEAKNAALEAKIAALEG [4H1845-AA]
APC6108-AA
  interaction score: -2.14
APC3645-AA
  interaction score: -1.23
4H2447-AA
  interaction score: -1.57
4H953-AA
  interaction score: -1.52
APC4264-AA
  interaction score: -1.79
4H3354-AA
  interaction score: -1.37
APC2405-AA
  interaction score: -1.12

## DENAALEAKIAALKAKIAALKAEIAALEG [4H1385-AA]
4H2888-AA
  interaction score: 1.96
4H337-AA
  interaction score: 0.173

## DENAALEAENAALEAEIAALEAEIAALEG [4H1153-AA]
4H1636-AA
  interaction score: -1.31

## DENAALEAKIAALKAEIAALEAKIAALKG [4H1350-AA]
4H3409-AA
  interaction score: -1.11
4H2513-AA
  interaction score: -1.31
4H327-AA
  interaction score: 2.32
4H2888-AA
  interaction score: 2.21
4H3664-AA
  interaction score: 0.037
4H55-AA
  interaction score: -1.11
4H1350-AA
  interaction score: 2.09
4H337-AA
  interaction score: 1.52
4H1710-AA
  interaction score: 0.556

## DEIAALEAENAALEAKIAALKAENAALEG [4H171-AA]
O7-AA
  interaction score: 1.08

## DENAALEAEIAALEAKIAALEAKNAALKG [4H1064-AA]
4H1809-AA
  interaction score: -1.44
4H1349-AA
  interaction score: 0.539
4H1854-AA
  interaction score: -1.4
4H1454-AA
  interaction score: 0.729
4H3628-AA
  interaction score: 1.07
4H675-AA
  interaction score: -1.16

## DENAALEAENAALKAKIAALKAEIAALEG [4H1257-AA]
4H1349-AA
  interaction score: 0.365
4H1446-AA
  interaction score: 0.0702
4H953-AA
  interaction score: -1.45
4H1454-AA
  interaction score: -0.555
4H3354-AA
  interaction score: -1.6
4H895-AA
  interaction score: -1.61
